Test results taken from patent publication US8980830B2 (priority 2007, dated 2015).
Square brackets hold non-standard residues; d marks the D form. Side chains are listed from the residue outwards. Ends that are not written are not given here. Peptide text beside a SMILES is read from it. PhLac = O=C(O)[C@@H](O)Cc1ccccc1

Tests used:
[1] = biological target: T1, Glucagon Receptor (Homo sapiens, UniProt P47871); assay: cAMP inhibition: antagonism of glucagon-induced cAMP at glucagon receptor; type: cell-based; parameters: expressed in transfected cells; host or cells: HEK293
[2] = biological target: T1, Glucagon Receptor; assay: Glucagon receptor binding assay (scintillation proximity competition binding)
[3] = Glucagon solubility assay; settings: Table 10
[4] = read-out: IC50 (nM) (Receptor binding), Table 12

T1 sequence (P47871 26-477): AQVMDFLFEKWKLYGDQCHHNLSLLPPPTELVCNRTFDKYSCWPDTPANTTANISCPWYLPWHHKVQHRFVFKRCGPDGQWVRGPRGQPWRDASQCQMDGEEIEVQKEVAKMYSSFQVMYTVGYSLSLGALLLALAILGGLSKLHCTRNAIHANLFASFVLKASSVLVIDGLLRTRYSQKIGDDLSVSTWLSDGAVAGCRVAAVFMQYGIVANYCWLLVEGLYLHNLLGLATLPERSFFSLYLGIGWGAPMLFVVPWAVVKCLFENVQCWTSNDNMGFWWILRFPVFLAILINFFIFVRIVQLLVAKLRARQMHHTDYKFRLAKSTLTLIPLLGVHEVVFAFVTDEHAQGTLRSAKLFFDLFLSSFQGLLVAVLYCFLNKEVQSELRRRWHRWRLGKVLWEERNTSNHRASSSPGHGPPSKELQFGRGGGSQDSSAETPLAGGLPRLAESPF

Row | IC50 (nM) (cAMP, inhibit 0.2 mM Glucagon) ([1]; Table 12) | IC50 [2, 4] | Solubility (%, pH 6-8) [3] | Molecule | other results
1 | no antagonism | > 1000 nM |  | [E^9, C^24 (20kDaPEG)]Glucagon(aa6-29)-NH2 (FTSEYSKYLDSRRAQDFVC(PEG 20 kDa)WLMNT-NH2) | IC50 ([2]; read-out: IC50 (nM) (Receptor binding), Table 12, listed as [Phe^6, E^9, C^24(20kDaPEG)]Glucagon(aa6-29)-NH2): > 10000 nM
2 |  |  | 96% | CSCC[C@H](NC(=O)[C@H](CC(C)C)NC(=O)[C@H](Cc1c[nH]c2ccccc12)NC(=O)[C@H](CCC(N)=O)NC(=O)[C@@H](NC(=O)[C@H](Cc1ccccc1)NC(=O)[C@H](CC(=O)O)NC(=O)[C@H](CCC(N)=O)NC(=O)[C@H](C)NC(=O)[C@H](CCCNC(=N)N)NC(=O)[C@H](CCCNC(=N)N)NC(=O)[C@H](CO)NC(=O)[C@H](CC(=O)O)NC(=O)[C@H](CC(C)C)NC(=O)[C@H](Cc1ccc(O)cc1)NC(=O)[C@H](CCCCN)NC(=O)[C@H](CO)NC(=O)[C@H](Cc1ccc(O)cc1)NC(=O)[C@H](CC(=O)O)NC(=O)[C@H](CO)NC(=O)[C@@H](NC(=O)[C@@H](O)Cc1ccccc1)[C@@H](C)O)C(C)C)C(=O)N[C@@H](CC(N)=O)C(=O)N[C@H](C(=O)O)[C@@H](C)O [[PLA^6, D^9]Glucagon(aa6-29)-COOH] (H-[PhLac]TSDYSKYLDSRRAQDFVQWLMNT-OH) | 
3 | no antagonism | > 10000 nM |  | [K^5(CH2CH2S-20kDaPEG), E^9]Glucagon(aa5-29)-NH2 (K([CH2CH2S-PEG 20 kDa])FTSEYSKYLDSRRAQDFVQWLMNT-NH2) | 
4 |  | > 10000 nM |  | [d-Cys^5(20kDaPEG), E^9]Glucagon(aa5-29)-NH2 ([dC](PEG 20 kDa)FTSEYSKYLDSRRAQDFVQWLMNT-NH2) | IC50 ([1]; read-out: IC50 (nM) (cAMP, inhibit 0.2 mM Glucagon), Table 12, inhibit 0.2 mM Glucagon): 14800 nM
5 | no antagonism | > 1000 nM |  | [C^8(20kDaPEG), E^9]Glucagon(aa6-29)-NH2 (FTC(PEG 20 kDa)EYSKYLDSRRAQDFVQWLMNT-NH2) | 
6 |  |  | 100% | CSCC[C@H](NC(=O)[C@H](CC(C)C)NC(=O)[C@H](Cc1c[nH]c2ccccc12)NC(=O)[C@H](CCC(N)=O)NC(=O)[C@@H](NC(=O)[C@H](Cc1ccccc1)NC(=O)[C@H](CC(=O)O)NC(=O)[C@H](CCC(N)=O)NC(=O)[C@H](C)NC(=O)[C@H](CCCNC(=N)N)NC(=O)[C@H](CCCNC(=N)N)NC(=O)[C@H](CO)NC(=O)[C@H](CC(=O)O)NC(=O)[C@H](CC(C)C)NC(=O)[C@H](Cc1ccc(O)cc1)NC(=O)[C@H](CCCCN)NC(=O)[C@H](CO)NC(=O)[C@H](Cc1ccc(O)cc1)NC(=O)[C@H](CC(=O)O)NC(=O)[C@H](CO)NC(=O)[C@@H](NC(=O)[C@@H](O)Cc1ccccc1)[C@@H](C)O)C(C)C)C(=O)N[C@@H](CC(=O)O)C(=O)N[C@H](C(N)=O)[C@@H](C)O [[PLA^6, D^9, D^28] Glucagon(aa6-29)-NH2] | 
7 |  |  |  | FTSEYSKYLDSRRAQDFVQWLMNT-NH2 [[Glu^9]Glucagon(aa6-29)-NH2] | cAMP pA2 [1]: 7.16 ± 0.27; IC50 ([2]; Table 7, average ±STD, at least three experiments): 36.4 ± 5.23 nM; IC50 ([2]; read-out: IC50 (nM) receptor binding, Table 9): 36.4 ± 5.23 nM
8 | no antagonism | > 1000 nM |  | [E^9, C^11(20kDaPEG)]Glucagon(aa6-29)-NH2 (FTSEYC(PEG 20 kDa)KYLDSRRAQDFVQWLMNT-NH2) | 

Row | Molecule | IC50 (nM) (cAMP, inhibit 0.2 mM Glucagon) ([1]; Table 12) | IC50 [2, 4] | Solubility (%, pH 6-8) [3] | other results
9 | CSCC[C@H](NC(=O)[C@H](CC(C)C)NC(=O)[C@H](Cc1c[nH]c2ccccc12)NC(=O)[C@H](CCC(N)=O)NC(=O)[C@@H](NC(=O)[C@H](Cc1ccccc1)NC(=O)[C@H](CC(=O)O)NC(=O)[C@H](CCC(N)=O)NC(=O)[C@H](C)NC(=O)[C@H](CCCNC(=N)N)NC(=O)[C@H](CCCNC(=N)N)NC(=O)[C@H](CO)NC(=O)[C@H](CC(=O)O)NC(=O)[C@H](CC(C)C)NC(=O)[C@H](Cc1ccc(O)cc1)NC(=O)[C@H](CCCCN)NC(=O)[C@H](CO)NC(=O)[C@H](Cc1ccc(O)cc1)NC(=O)[C@H](CCC(=O)O)NC(=O)[C@H](CO)NC(=O)[C@@H](NC(=O)[C@@H](O)Cc1ccccc1)[C@@H](C)O)C(C)C)C(=O)N[C@@H](CC(N)=O)C(=O)N[C@H](C(=O)NCC(=O)N1CCC[C@H]1C(=O)N[C@@H](CO)C(=O)N[C@@H](CO)C(=O)NCC(=O)N[C@@H](C)C(=O)N1CCC[C@H]1C(=O)N1CCC[C@H]1C(=O)N1CCC[C@H]1C(=O)N[C@@H](CO)C(N)=O)[C@@H](C)O [[PLA^6, E^9]Glucagon (aa6-29 + CEX)-NH2] (H-[PhLac]TSEYSKYLDSRRAQDFVQWLMNTGPSSGAPPPS-NH2) |  |  | 16% | 
